The target in experiment [1] is T1, human CDH6 expressed on cells (human, UniProt P55285 54-790).
T1 sequence: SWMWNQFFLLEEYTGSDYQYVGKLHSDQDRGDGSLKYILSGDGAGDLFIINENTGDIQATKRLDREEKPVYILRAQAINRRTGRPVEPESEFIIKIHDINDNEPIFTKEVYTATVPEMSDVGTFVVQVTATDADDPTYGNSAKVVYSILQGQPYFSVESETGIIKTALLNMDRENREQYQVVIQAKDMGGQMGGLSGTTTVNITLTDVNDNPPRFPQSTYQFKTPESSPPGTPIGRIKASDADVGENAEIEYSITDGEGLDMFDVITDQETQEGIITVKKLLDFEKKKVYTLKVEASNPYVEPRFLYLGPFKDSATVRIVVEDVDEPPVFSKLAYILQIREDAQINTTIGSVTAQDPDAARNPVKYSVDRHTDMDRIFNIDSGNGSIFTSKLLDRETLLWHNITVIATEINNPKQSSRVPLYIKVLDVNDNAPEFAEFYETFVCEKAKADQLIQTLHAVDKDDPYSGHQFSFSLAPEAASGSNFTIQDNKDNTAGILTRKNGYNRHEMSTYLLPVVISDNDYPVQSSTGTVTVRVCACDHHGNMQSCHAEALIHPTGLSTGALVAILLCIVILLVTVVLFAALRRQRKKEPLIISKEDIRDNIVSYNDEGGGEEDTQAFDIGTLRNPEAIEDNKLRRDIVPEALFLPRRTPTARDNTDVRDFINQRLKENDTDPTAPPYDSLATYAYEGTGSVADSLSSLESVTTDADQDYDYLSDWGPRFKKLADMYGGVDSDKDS
The experiment is described as follows: FACS histogram on OVCAR8-CDH6+ cells.

Experiment [2] concerns the target T1, human CDH6 expressed on cells. The experiment is described as follows: FACS histogram on OVCAR3 cells.
Experiment [3] concerns the target T2, CDH6 wt (human, UniProt P55285 54-615, limits assumed).
T2 sequence: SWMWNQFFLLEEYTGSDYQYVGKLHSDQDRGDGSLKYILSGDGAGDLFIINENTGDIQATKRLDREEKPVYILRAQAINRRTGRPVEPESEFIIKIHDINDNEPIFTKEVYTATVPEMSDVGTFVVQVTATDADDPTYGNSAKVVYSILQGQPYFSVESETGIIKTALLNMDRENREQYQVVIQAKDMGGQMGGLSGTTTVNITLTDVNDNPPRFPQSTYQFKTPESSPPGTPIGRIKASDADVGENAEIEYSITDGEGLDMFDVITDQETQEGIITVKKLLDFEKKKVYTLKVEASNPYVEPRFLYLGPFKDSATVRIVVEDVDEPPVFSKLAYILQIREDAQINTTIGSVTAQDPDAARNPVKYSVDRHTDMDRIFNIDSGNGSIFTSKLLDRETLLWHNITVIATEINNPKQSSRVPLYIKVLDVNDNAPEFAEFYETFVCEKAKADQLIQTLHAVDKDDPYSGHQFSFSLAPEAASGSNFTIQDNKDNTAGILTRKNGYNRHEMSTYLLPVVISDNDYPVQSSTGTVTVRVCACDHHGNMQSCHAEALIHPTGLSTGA
The experiment is described as follows: ELISA on coated CDH6-wt, O.D. In general terms: An ELISA detects its analyte on a solid surface through an enzyme-linked reagent.

In experiment [4] the target is T3, CDH6-N573A (human, UniProt P55285 54-615).
T3 sequence: T2 sequence with N520A
The experiment is described as follows: ELISA on coated CDH6-N573A, O.D.

Experiment [5] addresses T4, CDH6-D574A (human, UniProt P55285 54-615).
T4 sequence: T2 sequence with D521A
The experiment is described as follows: ELISA on coated CDH6-D574A, O.D.

Experiment [6] deals with T3, CDH6-N573A. The experiment is described as follows: ELISA on coated CDH6-N573A, O.D. The source holds these as a separate data set.
For experiment [7], the target named is T5, CDH6-Y575A (human, UniProt P55285 54-615).
T5 sequence: T2 sequence with Y522A
The experiment is described as follows: ELISA on coated CDH6-Y575A, O.D.

For experiment [8], the target named is T2, CDH6 wt. The experiment is described as follows: ELISA on coated CDH6-wt, O.D. The source holds these as a separate data set.
In experiment [9] the target is T3, CDH6-N573A. The experiment is described as follows: ELISA on coated CDH6-N573A, O.D. This is another data set of the same source.
Experiment [10] concerns the target T4, CDH6-D574A. The experiment is described as follows: ELISA on coated CDH6-D574A, O.D. This is another data set of the same source.
In experiment [11] the target is T2, CDH6 wt. The experiment is described as follows: ELISA on coated CDH6-wt, O.D. The source holds these as a separate data set.
In experiment [12] the target is T5, CDH6-Y575A. The experiment is described as follows: ELISA on coated CDH6-Y575A, O.D. This is another data set of the same source.

Where a chain is given by its changes, count along the chain named. Where two headings read alike, the source gives them in different places.

For the molecule non-binding control ADC (antibody), the Geom. Mean Fluorescence was determined as 56.5 in [1] and 60.4 in [2].

One may read the EC50 as the midpoint of the concentration-response curve. With human isotype control IgG (antibody), the Geom. Mean Fluorescence in experiment [1] was found to be 54.2; in experiment [2], 57.9. Further, the EC50 with CDH6 wt [3] turned out to be 0.3 µM; with CDH6-N573A [4], 0.545 µM.

B1: NOV0710 (antibody, human IgG1, kappa, V domains shown)
VH: QVQLLESGGGLVQPGGSLRLSCAASGFTFSSYAMSWVRQAPGKGLEWVSVIRSSGSSTYYADSVKGRFTISRDNSKNTLYLQMNSLRAEDTAVYYCARGGGYFDYWGQGTLVTVSS
VL: DIQMTQSPSSLSASVGDRVTITCRASQSISLWLNWYQQKPGKAPKLLIYAASTLQSGVPSRFSGSGSGTDFTLTISSLQPEDFATYYCQQYYTSPYTFGQGTKVEIKR
For the molecule B1, the EC50 turned out to be 151 µM with CDH6-D574A [5], 459 µM with CDH6-N573A [6], 0.287 µM with CDH6-Y575A [7] and 0.2 µM with CDH6 wt [8].

B2: NOV0720 (antibody, human IgG1, lambda, V domains shown)
VH: QVQLQQSGPGLVKPSQTLSLTCAISGDSVSSNSAGWNWIRQSPSRGLEWLGRIYYRSKWYNDYAVSVKSRITINPDTSKNQFSLQLNSVTPEDTAVYYCAREKYTVSFYDFFDYWGQGTLVTVSS
VL: DIELTQPPSVSVSPGQTASITCSGDNIGSMTAHWYQQKPGQAPVLVIYDKNERPSGIPERFSGSNSGNTATLTISGTQAEDEADYYCQSWDDSYNSVVFGGGTKLTVLG
Regarding B2, the 50% effective concentration (EC50) with CDH6-N573A [9] turned out to be 6.74 µM; with CDH6-D574A [10], 7.58 µM; in the experiment with CDH6 wt [11], 7.11 µM; with CDH6-Y575A [12], 7.2 µM.

Source of the values: patent US20160046711A1 (Novartis, published 2016).
